The text below walks through data of paper PMC2871031 (Structure (London, England : 1993), 2010).

The target of data set [1] is ClpA (wild type), ATPγS-assembled hexamer (E. coli) (UniProt P0ABH9).
The target of data set [2] is ClpA-Δ10 (linker deletion mutant, residues 145 to 154 deleted) (E. coli) (UniProt P0ABH9).
Data set [3] concerns the target ClpA-Δ15 (linker deletion mutant, residues 145 to 159 deleted) (E. coli) (UniProt P0ABH9).
Data set [4] concerns the target ClpA-Δ153 (N-domain-deleted form of ClpA) (E. coli) (UniProt P0ABH9).
Data set [5] has as its target T1, ClpP peptidase (tetradecamer) (UniProt P0A6G7 15-207). Nature of the data set: cryo-EM structure.
Data set [6] concerns the molecule itself. Nature of the data set: cryo-EM structure.
The target of data set [7] is T1, ClpP peptidase (tetradecamer). Nature of the data set: cryo-electron microscopy with 2D averaging and variance maps of side-views.
Data set [8] concerns the molecule itself. Described as above.

“And” between values parts separate entries of the source, which are not always exact repeats. Identical values can stand only once.

T1 sequence (P0A6G7 15-207): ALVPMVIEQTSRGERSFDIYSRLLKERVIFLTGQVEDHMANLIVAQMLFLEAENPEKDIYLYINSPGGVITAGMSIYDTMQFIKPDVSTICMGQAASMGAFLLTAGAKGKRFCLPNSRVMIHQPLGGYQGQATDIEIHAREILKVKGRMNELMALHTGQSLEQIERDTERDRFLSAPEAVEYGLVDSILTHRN

As for GFP-SsrA, the Km of GFP-SsrA degradation, 37 °C (μM protein monomer) in data set [1] was determined as 1.7; in data set [2], 1.7; in data set [3], 1.5; in data set [4], 1.

On to α-casein (natural protein), for which the Km of α-casein degradation, 37 °C (μM protein monomer) in data set [1] stood at 0.2; in data set [3], 0.35.

B1: ClpA (wild type), ATPγS-assembled hexamer (enzyme, E. coli, UniProt P0ABH9 1-758, looked up)
chain: MLNQELELSLNMAFARAREHRHEFMTVEHLLLALLSNPSAREALEACSVDLVALRQELEAFIEQTTPVLPASEEERDTQPTLSFQRVLQRAVFHVQSSGRNEVTGANVLVAIFSEQESQAAYLLRKHEVSRLDVVNFISHGTRKDEPTQSSDPGSQPNSEEQAGGEERMENFTTNLNQLARVGGIDPLIGREKELERAIQVLCRRRKNNPLLVGESGVGKTAIAEGLAWRIVQGDVPEVMADCTIYSLDIGSLLAGTKYRGDFEKRFKALLKQLEQDTNSILFIDEIHTIIGAGAASGGQVDAANLIKPLLSSGKIRVIGSTTYQEFSNIFEKDRALARRFQKIDITEPSIEETVQIINGLKPKYEAHHDVRYTAKAVRAAVELAVKYINDRHLPDKAIDVIDEAGARARLMPVSKRKKTVNVADIESVVARIARIPEKSVSQSDRDTLKNLGDRLKMLVFGQDKAIEALTEAIKMARAGLGHEHKPVGSFLFAGPTGVGKTEVTVQLSKALGIELLRFDMSEYMERHTVSRLIGAPPGYVGFDQGGLLTDAVIKHPHAVLLLDEIEKAHPDVFNILLQVMDNGTLTDNNGRKADFRNVVLVMTTNAGVRETERKSIGLIHQDNSTDAMEEIKKIFTPEFRNRLDNIIWFDHLSTDVIHQVVDKFIVELQVQLDQKGVSLEVSQEARNWLAEKGYDRAMGARPMARVIQDNLKKPLANELLFGSLVDGGQVTVALDKEKNELTYGFQSAQKHKAEAAH
With B1, the stoichiometry N – broadly, the number of molecules, sites or subunits per partner or assembly – is 1 ClpA hexamers per ClpP tetradecamer in data set [5] and 6 subunits in data set [6].

B2: ClpA-Δ10 (linker deletion mutant, residues 145 to 154 deleted) (enzyme, E. coli, UniProt P0ABH9 1-758, looked up)
chain: MLNQELELSLNMAFARAREHRHEFMTVEHLLLALLSNPSAREALEACSVDLVALRQELEAFIEQTTPVLPASEEERDTQPTLSFQRVLQRAVFHVQSSGRNEVTGANVLVAIFSEQESQAAYLLRKHEVSRLDVVNFISHGTRKSQPNSEEQAGGEERMENFTTNLNQLARVGGIDPLIGREKELERAIQVLCRRRKNNPLLVGESGVGKTAIAEGLAWRIVQGDVPEVMADCTIYSLDIGSLLAGTKYRGDFEKRFKALLKQLEQDTNSILFIDEIHTIIGAGAASGGQVDAANLIKPLLSSGKIRVIGSTTYQEFSNIFEKDRALARRFQKIDITEPSIEETVQIINGLKPKYEAHHDVRYTAKAVRAAVELAVKYINDRHLPDKAIDVIDEAGARARLMPVSKRKKTVNVADIESVVARIARIPEKSVSQSDRDTLKNLGDRLKMLVFGQDKAIEALTEAIKMARAGLGHEHKPVGSFLFAGPTGVGKTEVTVQLSKALGIELLRFDMSEYMERHTVSRLIGAPPGYVGFDQGGLLTDAVIKHPHAVLLLDEIEKAHPDVFNILLQVMDNGTLTDNNGRKADFRNVVLVMTTNAGVRETERKSIGLIHQDNSTDAMEEIKKIFTPEFRNRLDNIIWFDHLSTDVIHQVVDKFIVELQVQLDQKGVSLEVSQEARNWLAEKGYDRAMGARPMARVIQDNLKKPLANELLFGSLVDGGQVTVALDKEKNELTYGFQSAQKHKAEAAH
As for B2, the “stoichiometry N” value in data set [7] is 1 ClpA hexamers per ClpP tetradecamer and 2 ClpA hexamers per ClpP tetradecamer; in data set [8], 6 subunits.

B3: ClpA-Δ15 (linker deletion mutant, residues 145 to 159 deleted) (enzyme, E. coli, UniProt P0ABH9 1-758, looked up)
chain: MLNQELELSLNMAFARAREHRHEFMTVEHLLLALLSNPSAREALEACSVDLVALRQELEAFIEQTTPVLPASEEERDTQPTLSFQRVLQRAVFHVQSSGRNEVTGANVLVAIFSEQESQAAYLLRKHEVSRLDVVNFISHGTRKEEQAGGEERMENFTTNLNQLARVGGIDPLIGREKELERAIQVLCRRRKNNPLLVGESGVGKTAIAEGLAWRIVQGDVPEVMADCTIYSLDIGSLLAGTKYRGDFEKRFKALLKQLEQDTNSILFIDEIHTIIGAGAASGGQVDAANLIKPLLSSGKIRVIGSTTYQEFSNIFEKDRALARRFQKIDITEPSIEETVQIINGLKPKYEAHHDVRYTAKAVRAAVELAVKYINDRHLPDKAIDVIDEAGARARLMPVSKRKKTVNVADIESVVARIARIPEKSVSQSDRDTLKNLGDRLKMLVFGQDKAIEALTEAIKMARAGLGHEHKPVGSFLFAGPTGVGKTEVTVQLSKALGIELLRFDMSEYMERHTVSRLIGAPPGYVGFDQGGLLTDAVIKHPHAVLLLDEIEKAHPDVFNILLQVMDNGTLTDNNGRKADFRNVVLVMTTNAGVRETERKSIGLIHQDNSTDAMEEIKKIFTPEFRNRLDNIIWFDHLSTDVIHQVVDKFIVELQVQLDQKGVSLEVSQEARNWLAEKGYDRAMGARPMARVIQDNLKKPLANELLFGSLVDGGQVTVALDKEKNELTYGFQSAQKHKAEAAH
Take B3: the “stoichiometry N” value is 1 ClpA hexamers per ClpP tetradecamer and 2 ClpA hexamers per ClpP tetradecamer in data set [7]; 6 subunits in data set [8].
